Test results: the nanobody polyreactivity screen of Harvey et al. (2022)

Experiment: yeast display, Sf9 membrane polyspecificity reagent, FACS + sequencing; frameworks hold sequencing errors
Method in brief: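 A synthetic nanobody library was expressed on Saccharomyces cerevisiae BJ5465 by galactose induction for 36–48 hours. The library was stained for 1 hour at 4 °C with 10% biotinylated, detergent-solubilized Sf9 membrane reagent and enriched with streptavidin microbeads before FACS. Low and high (top ~1%) gates were set on anti-HA fluorescence for expression and streptavidin fluorescence for reagent binding, and each polyreactivity label reflects the gate of origin.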

Sequence	polyreactivity (PSR sort gate)
QVQLVESGGRLVQAGGSLRLSCAASGINFGYYAMGLYRQAPGKEMELVAAINKSGTSTYYADSVKGRFTISRDNAKNTVYLQMNSLKPEDTAVYYCAVDYARDKGYPYGYWGQGTQVTVSS	low polyreactivity
QVQLVESGGGLVQAGGSLRLSCAASGRTFGRYAMGWYRQAPGKERELVASITSRGGSTYADSVKGRFTISRDNAKNTVYLQMNSLKPEDTAVYYCASRDKYRYWYAYWRQGTQVTVSS	high polyreactivity
QVQLVESGGGLVQAGGSLRLSCAASGFTFPWYAMVWYRQSPGKERELVASISYRGDSTYYADSVKGRFTISRDNAKNTVNLQMNILKPEDTAVYYCNKLLASYYLPGFDYWGQGTQVTVSS	low polyreactivity
QVQLVESRGGLFQAGGSLRLSCAASGFIFRDNAMGWYRQAPGKERELVAAISKSGGRTYYADSVKGRFTISRDNAKNTVYLQMNSLKPEDTAVYYCAKVRYQGNGGYYWGQGTQVTVSS	high polyreactivity
QVQLVESGGGLVQAGGSLRLSCAASGSIFGSYAMGWYRQAPGKERELVAAITSGGSTYADSVKGPFTISRDNPNKTVYLQMNSQKPDDTAVYYSNAKFYHSTSTLVQSEYDYWGQGTQVSVSS	low polyreactivity
QVQLVESGGGLVQAGGSLRLSCAASGRSFYYNAMGWYRQAPGKERELVAAIRSSGGTTYYADSVKGRFTISRDNAKNTVYLQMNSLKPEDTAVYYCAKDSNRYSYYSPYDSWGQGTQVTVSS	low polyreactivity
QVQLQESGGGLVQAGGSLRLSCAASGSISRYYDMGWYRQAPGTEREFVAGISGGAITYYADRVKGRFTISRDNAKNTVYLQMNSLKPEDTAVDYCAADTGVYLYHSYWGQGTQVTVSS	low polyreactivity
QVQLVESGGGLVQAGGSLRLSCAASGSIFSTYAMGRYRQAPGKERELVAAITFGGGTTYYADSVKGRFTISRDNAKNTVYLQMNSLKPEDTAVYYCAARYYYGSWYFYYSDKYDYWGQGTKVTVSS	low polyreactivity
QVQLVESGGGLVQAGGSLRLSCAASGSILPVYAMGWYRQAPGKERELVAAISVSGGSTRYADSVKGRFTISRDNAKNTVYLQMNSLKPEDTAVYYCAARYRYSYGYWGQGTQVTVSS	high polyreactivity
QVQLVESGGGLVQAGGSLRLSCAASGGTFPQNLMGWYRQAPGQERELVAAISSGGSTYYADSGKGRFTISRDNAKNSVYLQMNSLKPEDTAVYYCAKRRWYRYDYWGQGTQVTVSS	high polyreactivity
QVQLVESGGGLVQAGGSLRLSCAASGFIFRYYAMGWYRQATGKEREFVAVISSTTGSTYYADSVKGRFTISRDNAKNTVYLQMNSLKPEDTAVYYCAAASRRRRPLKRMDYWGQGTQVTVSS	low polyreactivity
QVQLVESGGGLVQAGGSLRLSCAASGRTFHGYAMRWYRQAPGKDRELVAAITSSGARTYYADSVKGRFTISRDNAKNTVYLQMNSLKPEDTACYYCNAEYYSTWYRFDYWGQGTQVTVSS	high polyreactivity
QVQLVESGGGLVQAGGSLRLSCAASGSIFKVNVMGWSRQAPGKERELVAAISRSGGNTYYADSVKGRFTISRDNAKNTVYLQMIILKPEDTGVYYCANDRRYYKAYDYWGQGTRVTVSS	low polyreactivity
QVQLVESGGGLVQAGGSLRLSCAASGRIFGAYAMGWYRQAPGKERELVAAITGGGSTYYADSVKGRFTISRDNAKTTVYLQMKSLKPEDTAVYYCAADYYWTYSYYYERFDYWGQGTQVTVSS	low polyreactivity
QVQLVESGGGLVQAGGSLRLSCGASGRIFSYYAMGWYRQAPGKERELVAAINTGGDTYYADSVKGRFTISRDNAKNTVYLQMNSLKPEDTAVYYCAAAYGWGYYYGYGYTPTYDYWGQGTQVTVSS	low polyreactivity
QVQLVESGGGLVQAGGSLRLSCAASGSTFGLYAMGWYRQAPVKEREFVAAISWRTGSTYYADSVKGRFTISRDTAKNTVYLQMNSLKPEDTAVYYCNAPYFYSRYSPDDYWGQGTQVTVSS	high polyreactivity
QVQLVESGGGLVQAGGSLRLSCAASGGIFYGYAMGWYRQAPWKERELVAAISSTGGRTYYADSVKGRFTISRDNAKNTVYLQMNSLKPEVTAVYYCAAEDFTRQFEYWGQGTQVTVSS	low polyreactivity
QVQLVESGGGLVQAGGSLRLSCAASGCIVSYYTMGWYRQAPGKERELVAAIRSSGGSTYADSVKGRFTISRDNAKNTVYLQMNCLKPEDTAVYYCAAVQTWRWVYARDYWGEGTQVTVSS	high polyreactivity
QVLLQESGGGLVQAGGSLRLGCAASGTISPAYYMGRSHQAPGKEREFVAAITYGTNTYYADSVKGRFTISRDNAKNTVYLQMNSLKPEDTAVYYCSATAGYNGAHDYWGQGTQVTVSS	low polyreactivity
QVQLVESGGGLVQAGGSLRLSCAASGFIFYDYMGWYRQAPGKERELVAVISYSGSSTYYADSVKGRFTISRDNAKNTVYLQMNSLKPEDTAVYYCAARNVNGWDYDYWGQGTQVTVSS	low polyreactivity
QVQLVESGGGLVQAGGSLRLSCAASGSTFGSYAMGWYRPAPGKERELVAAISYSGGSTYYADSVKGRFTISRDNAKNTVYLQMNSLKPEDTAVYYCATVRKYRAMVYWGQGTQVTVSS	high polyreactivity
QVQLVESGGGLVQAGGSLRLSCAASGGTIAGYAMGWYRHAPGKERELVASISDGGSTNYADSVKGRFTISRDNAKNTVYLQMNSLKPEDTAVYYCADLAYVPSYTYDYWGQGTQVTVSS	low polyreactivity

Sequence	polyreactivity (PSR sort gate)
QVQLVESGGGLVQAGGSLRLSCAASGRIFSLYAMGWYRPAPGKEMELVAAITGIGGSTYYADSVKGRFTISRDNAKNTVYLQMNSLKPDDTAVYYCAARYPATYPSMGYWGQGTQLTVSS	low polyreactivity
QVQLVESGGGLVQAGGSLRLSCAASGSTFEPYAMGWYRQAPGKERELVATITLRGGTTNYADSVKGRFTISRDNAKNTVYLQMNSLKPEDTAVYYCNARKLTGYIRYRTGKMNYWGQGTQVTVSS	high polyreactivity
QVQLVESGGGLVQAGGSLRLSCAASGSTFEYYAMGWYRQAPGKEREFVAAITSTGGSTHYADSVKGRFTISRDNAKNTVYLQMNSLKPEDTAVYVCGKRSYGQTRAYSAGNYWGQGNQVTVSS	low polyreactivity
QVQLVESGGGLVQAGGSLRLSCAASGSTSKWYAMGWYRQAPGKERELVAAITKTGGRTYYADSVKGRFTFSRDYAKNTVYLQMNSLKPEDTAVYYCAVEYLRGFIVIYDNWGQGTQVTVSS	high polyreactivity
QVQLVESGGGLVQAGGSLRLSCAASGIIFSGNAMGWYRQAPGKERELVAAITLSGGSTYYADSVKGRFTISRDNAKNTVYLQMNSLKPEDTAVYYCNAVYDTNYSLRDIDTEYGSWGQGTQVTVSS	low polyreactivity
QVQLVESGVGLVQAGGSLRLSCAASGRIFRYYTMGRYRHAPGKERELVAAITKSGGRTYYADSVKGRFTISRDTANNTVYLQMNSLKPEDTAVYYCAARRLYWGQGTQVTVSS	high polyreactivity
QVQLVESGVGLVHAGGSLRLSCAASGSTFYANTMGWYIQAPGKERELVAAISQSGGSTYYADSVKGRFSISRDNAKNTVYLQMNSLKPEDTAVYYCAARRLPRKERKLYYWGQGTQVTVSS	high polyreactivity
QVQLVESGGGLVQAGGSLRLICAASGRIFQIYAMGWYRQAPGKEREVVAAISSGGTTYYADSVKGRFTISRDNAKNTVYLQMNSLKPEDTAVYYCAAVAWDLYSDGQEYNYWGQGPQVTVSS	high polyreactivity
QVQLVESGGGLVQAGGSLRLSCAASGFTFYGYAMGWYRQAPGKEREFVADISSRDGSTYYADSVKGRFTISRDNAKNTVYLQMNSLKPEDTAVYYCAADSGQYKWSDYDYWGQGTQVTVSS	low polyreactivity
QVQLVESGGGLVQAGGSLRLTCAASGRIFSYYAMGWYRPAPGKERELVAAISSSGGSTYYADSVKGRFTISRDNAKNTVYLQMNSLKPEDTAVYDCRVYTRGEYYSWGQGTQVTVSS	high polyreactivity
QVHLVESGGGLVKAGGSLRLSCAASGSTKYYVMGWYRQAPGKERELVAAISRGSSTYYADSVKGRFTISRDNAKNTVYLQMNSLKPEDTAVYYCAARGPWQAPYDYWGQGTQVTVSS	high polyreactivity
QVQLVESGGGLVQAGGSLRLSCAASGSIFNANAMGWYRQAPAKERELVAAITPSDGDTYYADSVKGRFTISRDNAKNTVYLQMNSLKPEDTAVYYCAAEDDPGEYEYWGQGTQVTVSS	low polyreactivity
QVQLVESGGGLVQAGGSLRLSCAASGSIFTRNTMGWYRQAPGKERELVAAINRSGGRTYYADSVKGRFTISRDNAKNSVYLTMNSLKPEDTAVYYCAAYTQGSRYDYWGQGTQVTVSS	high polyreactivity
QVQLVESGGGLVQAGGSLRLSCAASGIIFYQYAMGWYRQAPGKERELVAAINTSGGSTYADSVKGRFTISRDNAKNTVYLQMNSLKPEDTAVYYCAASYRYVRWKWGYNYWGQGTQVTVSS	high polyreactivity
QVQLVESGGGLVQAGGSLRLSCAASGSTFIIYSMGWYRQAPGKERELVATISTRGTSTYYADSVKGRFTISRDNAKNTVYLQMNSLKPEDTAVYYCNARRRGYGNRYTFDYWGQGTQVTVSS	high polyreactivity
QVQLVESGGGLVQAGGSLRLSCAASGRILGKNTMGWYRQAPGKEREFVAAISASGGRTYYADSVKGRFTISRDNAKNTVYLQMNSLKPEDTAVYYCAAARSRYSYATGFDYWGQGTQVTVSS	high polyreactivity
QVQLVESGGGLVQAGGSLRVSCAAYGRTFYRNTMGWYRQAPGKEREFVAAISATAGRTYYADSVKGRFTFSRDNAKNTVYLQKNSLKPEDTAVYYCAAVPLRNRWPNSWPALDYWGQGTQVTVSS	high polyreactivity
QVQLVESGGGLVQAGGSLRLSCAATGSTYKYYAMGWYRQAPGKERELVAAITKSGGRTYYSDSVKGRLTISRDNAKNTVYLQMNSLKPEDTAVYYCATVTSHVDDEFDYWGQGTQVTVSS	high polyreactivity
QVQLVESGGGLVQAGGSLRLSCAASGRTFAGNAMGWYRQAPGKERELVAAISQGGGSTYYADSVKGRFTISRDNAKNTVYLQMNSLKPEDTAVYYCAVDFRRYPGFDYWGQGTQVTVSS	low polyreactivity
QVQLVESGGCLVQAGGSLRLSCAASGSIFYNNAMGWYRQAPGKERELVASSTGGGSTYADSVKGRFTISRDNAKNRVYVQMNSLKPEDTAVYYCAVGRYFVRYDYWGQGSQVTVSS	low polyreactivity
QVQLVESGGGLVQAGGSLRISCAASGNTFGDYAMGWYRQAPGKERELVAAISRSGGSTSYADSVKGRFTISRDNAKNTVYLQMNSLKPEDTAVYYCAGYWQRFGYDYWGQGTLVTVSS	low polyreactivity
